{"source": "paper PMC10925414", "key": {"[1]": {"molecular_target": "γC3 protocadherin EC1-EC4 (Mus musculus)", "settings": "cited from earlier work"}, "[2]": {"molecular_target": "γC3 EC1-EC4 wild type (PcdhγC3 EC1-EC4 ectodomain fragment) (mouse)", "test": "AUC; sedimentation equilibrium of single proteins; 1.1, 0.73 and 0.37 mg/mL; 10 mM Tris, 150 mM NaCl, 3 mM CaCl2, pH 8.0, 250 mM imidazole; 25°C; 11000-20000 rpm; interference at 675 nm; global fit in SedPhat; dimer to monomers"}}, "data": [{"substance": "γC3 protocadherin EC1-EC4 (from UniProt Q9UN70)", "values": [{"measurement": "Kd", "setting": "[1]", "result": 115, "unit": "µM"}]}, {"substance": "γC3 EC1-EC4 wild type (PcdhγC3 EC1-EC4 ectodomain fragment) (domain or fragment)", "values": [{"measurement": "Kd", "setting": "[2]", "result": 115, "unit": "µM"}]}]}
